{
  "source": "patent EP1230261B1",
  "about": "(LUDWIG INSTITUTE FOR CANCER RESEARCH, dated 2008)",
  "key": {"[1]": {"molecular_target": "T1, HLA-A*0201 molecules on T2 cells (CEMX721.174.T2) (human)", "assay": "cell-based or functional assay"}, "[2]": {"molecular_target": "T1, HLA-A*0201 molecules on T2 cells …", "assay": "cell-based or functional assay", "remark": "listed apart in the source"}, "[3]": {"molecular_target": "T1, HLA-A*0201 molecules on T2 cells …", "assay": "functional competition assay"}},
  "data": [
    {"binder": "SLLMWITQL", "note": "[NY-ESO-1 157-C165L peptide SLLMWITQL (SEQ ID NO:7)]", "values": [
      {"measurement": "Competitor activity [mM] 50%", "setting": "[1]", "result": 0.002, "unit": "mM"},
      {"measurement": "Relative competitor activity to SEQ ID NO:2", "setting": "[1]", "result": "130 relative to SEQ ID NO:2"},
      {"measurement": "Relative competitor activity (inhibition of CTL lysis of T2 cells given SEQ ID NO:4)", "setting": "[2]", "result": "0.5 relative to FluMA 58-66 (SEQ ID NO:5)"}
    ]},
    {"binder": "SLLMWITQV", "note": "[NY-ESO-1 157-C165V peptide SLLMWITQV (SEQ ID NO:8)]", "values": [
      {"measurement": "Competitor activity [mM] 50%", "setting": "[1]", "result": "6e-05", "unit": "mM"}
    ]},
    {"binder": "SALMWITQA", "note": "[peptide SALMWITQA (SEQ ID NO:21)]", "values": [
      {"measurement": "Competitor activity [mM] 50%", "setting": "[1]", "result": 0.01, "unit": "mM"},
      {"measurement": "Relative competitor activity to SEQ ID NO:2", "setting": "[1]", "result": "27 relative to SEQ ID NO:2"},
      {"measurement": "fold reduction in peptide binding (against the base peptide SEQ ID NO:6)", "setting": "[3]", "result": 100, "unit": "fold"}
    ]},
    {"binder": "SLLAWITQA", "note": "[peptide SLLAWITQA (SEQ ID NO:23)]", "values": [
      {"measurement": "Competitor activity [mM] 50%", "setting": "[1]", "result": "< 0.0001", "unit": "mM"},
      {"measurement": "Relative competitor activity to SEQ ID NO:2", "setting": "[1]", "result": "> 2700 relative to SEQ ID NO:2"}
    ]},
    {"binder": "SLLMAITQA", "note": "[peptide SLLMAITQA (SEQ ID NO:24)]", "values": [
      {"measurement": "Competitor activity [mM] 50%", "setting": "[1]", "result": 0.004, "unit": "mM"},
      {"measurement": "Relative competitor activity to SEQ ID NO:2", "setting": "[1]", "result": "68 relative to SEQ ID NO:2"}
    ]},
    {"binder": "SLLMWATQA", "note": "[peptide SLLMWATQA (SEQ ID NO:25)]", "values": [
      {"measurement": "Competitor activity [mM] 50%", "setting": "[1]", "result": 0.01, "unit": "mM"},
      {"measurement": "Relative competitor activity to SEQ ID NO:2", "setting": "[1]", "result": "27 relative to SEQ ID NO:2"}
    ]},
    {"binder": "SLLMWITQS", "note": "[peptide SLLMWITQS (SEQ ID NO:19)]", "values": [
      {"measurement": "Competitor activity [mM] 50%", "setting": "[1]", "result": 0.02, "unit": "mM"},
      {"measurement": "Relative competitor activity to SEQ ID NO:2", "setting": "[1]", "result": "13 relative to SEQ ID NO:2"}
    ]},
    {"binder": "QLSLLMWIT", "note": "[NY-ESO-1 155-163 peptide QLSLLMWIT (SEQ ID NO:3)]", "values": [
      {"measurement": "Competitor activity [mM] 50%", "setting": "[1]", "result": 0.03, "unit": "mM"},
      {"measurement": "Relative competitor activity to SEQ ID NO:2", "setting": "[1]", "result": "9 relative to SEQ ID NO:2"},
      {"measurement": "Relative competitor activity (inhibition of CTL lysis of T2 cells given SEQ ID NO:4)", "setting": "[2]", "result": "0.01 relative to FluMA 58-66 (SEQ ID NO:5)"}
    ]},
    {"binder": "SLLMWITQCFL", "note": "[NY-ESO-1 157-167 peptide SLLMWITQCFL (SEQ ID NO:1)]", "values": [
      {"measurement": "Competitor activity [mM] 50%", "setting": "[1]", "result": 0.02, "unit": "mM"},
      {"measurement": "Relative competitor activity to SEQ ID NO:2", "setting": "[1]", "result": "13 relative to SEQ ID NO:2"},
      {"measurement": "Relative competitor activity (inhibition of CTL lysis of T2 cells given SEQ ID NO:4)", "setting": "[2]", "result": "0.04 relative to FluMA 58-66 (SEQ ID NO:5)"}
    ]},
    {"binder": "ALLMWITQA", "note": "[peptide ALLMWITQA (SEQ ID NO:20)]", "values": [
      {"measurement": "Competitor activity [mM] 50%", "setting": "[1]", "result": 0.0013, "unit": "mM"},
      {"measurement": "Relative competitor activity to SEQ ID NO:2", "setting": "[1]", "result": "208 relative to SEQ ID NO:2"}
    ]},
    {"binder": "SLAMWITQA", "note": "[peptide SLAMWITQA (SEQ ID NO:22)]", "values": [
      {"measurement": "Competitor activity [mM] 50%", "setting": "[1]", "result": 0.001, "unit": "mM"},
      {"measurement": "Relative competitor activity to SEQ ID NO:2", "setting": "[1]", "result": "270 relative to SEQ ID NO:2"}
    ]},
    {"binder": "SLLMWIAQA", "note": "[peptide SLLMWIAQA (SEQ ID NO:26)]", "values": [
      {"measurement": "Competitor activity [mM] 50%", "setting": "[1]", "result": 0.0002, "unit": "mM"},
      {"measurement": "Relative competitor activity to SEQ ID NO:2", "setting": "[1]", "result": "1350 relative to SEQ ID NO:2"}
    ]},
    {"binder": "SLLMWITAA", "note": "[peptide SLLMWITAA (SEQ ID NO:27)]", "values": [
      {"measurement": "Competitor activity [mM] 50%", "setting": "[1]", "result": 0.00018, "unit": "mM"},
      {"measurement": "Relative competitor activity to SEQ ID NO:2", "setting": "[1]", "result": "1500 relative to SEQ ID NO:2"}
    ]}
  ]
}
